Reference: PMC7946914, “easyCLIP analysis of RNA-protein interactions incorporating absolute quantification”
Where a chain is given by its changes, count along the chain named.

Tests used:
Assay in all cases: fluorescence polarization; FP with 3' 6-FAM RNA; PCBP1 RNA diluted to 50 nM in PCBP binding buffer; buffer composition, pH and temperature not in the material
A1CF E34K = target: T1, A1CF E34K (human?, UniProt Q9NQ94 1-594, E34K); settings: protein: recombinant; label: 3' 6-FAM; single-stranded
T1 sequence: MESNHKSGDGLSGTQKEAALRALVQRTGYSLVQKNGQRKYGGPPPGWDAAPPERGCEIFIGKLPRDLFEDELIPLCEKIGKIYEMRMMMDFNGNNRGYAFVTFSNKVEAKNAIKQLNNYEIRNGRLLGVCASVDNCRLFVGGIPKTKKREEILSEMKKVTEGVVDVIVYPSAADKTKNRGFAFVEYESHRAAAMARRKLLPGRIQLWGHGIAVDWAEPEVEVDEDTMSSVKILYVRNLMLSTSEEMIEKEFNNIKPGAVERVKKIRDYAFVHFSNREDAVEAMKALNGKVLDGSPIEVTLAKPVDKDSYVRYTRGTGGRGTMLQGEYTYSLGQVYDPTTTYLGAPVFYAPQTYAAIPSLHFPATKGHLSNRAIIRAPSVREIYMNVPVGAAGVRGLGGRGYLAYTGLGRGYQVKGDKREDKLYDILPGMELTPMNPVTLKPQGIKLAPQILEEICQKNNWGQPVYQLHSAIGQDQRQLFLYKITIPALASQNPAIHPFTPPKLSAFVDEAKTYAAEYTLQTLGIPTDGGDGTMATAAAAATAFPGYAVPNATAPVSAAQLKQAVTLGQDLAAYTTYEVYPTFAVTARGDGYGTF

A1CF WT = target: T2, A1CF WT (human?, UniProt Q9NQ94 1-594); settings: protein: recombinant; label: 3' 6-FAM; single-stranded
T2 sequence: T1 sequence with K34E

KHDRBS2 WT = target: T3, KHDRBS2 WT (UniProt Q5VWX1 1-349); settings: protein: recombinant; chain copies: 2; label: 3' 6-FAM; single-stranded
T3 sequence: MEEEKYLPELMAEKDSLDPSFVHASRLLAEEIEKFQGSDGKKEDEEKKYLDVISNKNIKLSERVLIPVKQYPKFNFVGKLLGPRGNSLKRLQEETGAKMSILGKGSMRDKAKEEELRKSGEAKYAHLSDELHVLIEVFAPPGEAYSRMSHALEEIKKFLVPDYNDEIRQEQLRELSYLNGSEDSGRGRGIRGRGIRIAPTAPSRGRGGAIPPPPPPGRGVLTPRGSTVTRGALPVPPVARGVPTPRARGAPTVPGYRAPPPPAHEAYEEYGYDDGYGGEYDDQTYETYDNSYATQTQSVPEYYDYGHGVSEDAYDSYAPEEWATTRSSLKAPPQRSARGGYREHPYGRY

KHDRBS2 R168C = target: T4, KHDRBS2 R168C (UniProt Q5VWX1 1-349, R168C); settings: protein: recombinant; chain copies: 2; label: 3' 6-FAM; single-stranded
T4 sequence: T3 sequence with R168C

For AUUAAAUUAAAUUU (ssRNA) [AU-rich RNA (A1CF and KHDRBS2)], which binding signal (A1CF E34K) is on record?
Its binding signal is roughly 2 fold affinity vs WT.

What about the binding signal (A1CF WT) of the same binder?
The binding signal was 1 fold (reference).

And the binding signal (KHDRBS2 WT)?
Its binding signal is 1 fold (reference).

And the binding signal (KHDRBS2 R168C)?
Its binding signal is roughly 2 fold affinity vs WT.
